Target: HA-hFc probe: H1N1 A/California/04/2009 HA ectodomain fused to human IgG1 Fc
Experiment: flow cytometry on cells
Conditions: parent: est. 1.0; read off a plot

“Flag-tagged fTfR-5J8 receptor, WT (Flag+) (from UniProt Q9MYZ3) D100bL” gave a ratio to parent of 0.28.

“Flag-tagged fTfR-5J8 receptor, WT (Flag+) (from UniProt Q9MYZ3) I93A” gave a ratio to parent of 0.98.

“Flag-tagged fTfR-5J8 receptor, WT (Flag+) (from UniProt Q9MYZ3) I93D” gave a ratio to parent of 0.97.

Work on “Flag-tagged fTfR-5J8 receptor, WT (Flag+) (from UniProt Q9MYZ3) N32A” yielded a ratio to parent of 0.94.

In the case of “Flag-tagged fTfR-5J8 receptor, WT (Flag+) (from UniProt Q9MYZ3) R97A; P100aA; I93A”, the ratio to parent was 0.42.

“Flag-tagged fTfR-5J8 receptor, WT (Flag+) (from UniProt Q9MYZ3) R97H” gave a ratio to parent of 0.84.
